Reference: article PMC6609874, “MeABL5, an ABA Insensitive 5-Like Basic Leucine Zipper Transcription Factor, Positively Regulates MeCWINV3 in Cassava (Manihot esculenta Crantz)”

T1: MeABL5 (Manihot esculenta Crantz, UniProt A0A411G151)
T1 sequence: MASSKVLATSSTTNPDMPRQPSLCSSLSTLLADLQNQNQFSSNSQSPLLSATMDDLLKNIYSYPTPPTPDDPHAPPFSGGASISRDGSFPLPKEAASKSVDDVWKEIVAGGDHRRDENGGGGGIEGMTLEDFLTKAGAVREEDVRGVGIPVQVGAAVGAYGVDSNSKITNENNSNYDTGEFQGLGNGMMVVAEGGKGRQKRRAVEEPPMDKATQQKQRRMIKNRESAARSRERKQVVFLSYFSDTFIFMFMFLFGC


Biological target: T1, MeABL5
Assay: EMSA; 250 ng protein, 500 ng DNA; EMSA kit (Invitrogen), room temperature 30 min, 500 ng DNA, 0-250 ng protein, PAGE with SYBR Green/SYPRO Ruby stain; buffer, salt and pH not stated
Conditions: protein: recombinant; tags: MBP (pET28a-MBP) removed by TEV protease; Ni column purified; chain copies: 2; label: none (SYBR Green stain); annealed duplex

| Binder | binding result |
| --- | --- |
| pMeCWINV3-MT 54 bp (CACGTG deleted) (dsDNA) DNA 1: ATCGTTGACATGTGAGTATTTGACGTATCGGAAAGGGAAGAAAAACAACATTGA DNA 2: TCAATGTTGTTTTTCTTCCCTTTCCGATACGTCAAATACTCACATGTCAACGAT | no binding |
| pMeCWINV3-WT 60 bp (dsDNA) DNA 1: ATCGTTGACATGTGAGTATTTGACGTATCCACGTGGGAAAGGGAAGAAAAACAACATTGA DNA 2: TCAATGTTGTTTTTCTTCCCTTTCCCACGTGGATACGTCAAATACTCACATGTCAACGAT | binds |
